{
  "source": "paper PMC4792234",
  "about": "“Modulation of MICAL Monooxygenase Activity by its Calponin Homology Domain: Structural and Mechanistic Insights” (Scientific Reports, 2016)",
  "molecules": {"B1": {"name": "MICALMO (mouse MICAL-1 MO domain, residues 1-484) (Mus musculus) (protein)", "chain": "MASPASTNPAHDHFETFVQAQLCQDVLSSFQGLCRALGVESGGGLSQYHKIKAQLNYWSAKSLWAKLDKRASQPVYQQGQACTNTKCLVVGAGPCGLRAAVELALLGARVVLVEKRIKFSRHNVLHLWPFTIHDLRALGAKKFYGRFCTGTLDHISIRQLQLLLLKVALLLGVEIHWGVKFTGLQPPPRKGSGWRAQLQPNPPAQLASYEFDVLISAAGGKFVPEGFTIREMRGKLAIGITANFVNGRTVEETQVPEISGVARIYNQKFFQSLLKATGIDLENIVYYKDETHYFVMTAKKQCLLRLGVLRQDLSETDQLLGKANVVPEALQRFARAAADFATHGKLGKLEFAQDARGRPDVAAFDFTSMMRAESSARVQEKHGARLLLGLVGDCLVEPFWPLGTGVARGFLAAFDAAWMVKRWAEGAGPLEVLAERESLYQLLSQTSPENMHRNVAQYGLDPATRYPNLNLRAVTPNQVQDLYD", "notes": "isolated N-terminal FAD monooxygenase domain, residues 1-484 of 1048"}, "B2": {"name": "MICALMO-CH (mMICAL-1 residues 2-615) (Mus musculus; Q78K) (protein)", "chain": "ASPASTNPAHDHFETFVQAQLCQDVLSSFQGLCRALGVESGGGLSQYHKIKAQLNYWSAKSLWAKLDKRASQPVYQKGQACTNTKCLVVGAGPCGLRAAVELALLGARVVLVEKRIKFSRHNVLHLWPFTIHDLRALGAKKFYGRFCTGTLDHISIRQLQLLLLKVALLLGVEIHWGVKFTGLQPPPRKGSGWRAQLQPNPPAQLASYEFDVLISAAGGKFVPEGFTIREMRGKLAIGITANFVNGRTVEETQVPEISGVARIYNQKFFQSLLKATGIDLENIVYYKDETHYFVMTAKKQCLLRLGVLRQDLSETDQLLGKANVVPEALQRFARAAADFATHGKLGKLEFAQDARGRPDVAAFDFTSMMRAESSARVQEKHGARLLLGLVGDCLVEPFWPLGTGVARGFLAAFDAAWMVKRWAEGAGPLEVLAERESLYQLLSQTSPENMHRNVAQYGLDPATRYPNLNLRAVTPNQVQDLYDMMDKEHAQRKSDEPDSRKTTTGSAGTEELLHWCQEQTAGFPGVHVTDFSSSWADGLALCALVHHLQPGLLEPSELQGMGALEATTWALRVAEHELGITPVLSAQAVMAGSDPLGLIAYLSHFHSAFKNTSH", "notes": "MO plus CH domains, residues 2-615, Q78K to remove a protease site; extra Gly from vector; N-terminal His-tag removed with TEV; E. coli BL21, codon-optimised"}},
  "key": {"[1]": {"target": "T1, MICALMO-CH (mMICAL-1 residues 2-615) (Mus musculus, UniProt Q8VDP3, Q78K)", "T1 construct": "gene Mical1; MO plus CH domains, residues 2-615, Q78K to remove a protease site; extra Gly from vector; N-terminal His-tag removed with TEV; E. coli BL21, codon-optimised", "T1 sequence (Q8VDP3 2-615 Q78K)": "B2 chain", "assay": "X-ray crystallography, […] and […] Å", "format": "binding", "conditions": "oxidised FAD in the MO domain; two crystal forms"}, "[2]": {"substrate": "NC(=O)C1=CN([C@@H]2O[C@H](COP(=O)(O)OP(=O)(O)OC[C@H]3O[C@@H](n4cnc5c(N)ncnc54)[C@H](OP(=O)(O)O)[C@@H]3O)[C@@H](O)[C@H]2O)C=CC1", "assay": "purified protein", "format": "biochemical, Mus musculus", "conditions": "no F-actin, O2 as acceptor, 5 mM Tris-HCl pH 8.0, 50 mM KCl, 2 mM MgCl2, 0.2 mM CaCl2, 0.5 mM DTT, 1 mM ATP, 600 nM enzyme"}},
  "data": [
    {"molecule": "Cc1cc2nc3c(=O)[nH]c(=O)nc-3n(C[C@H](O)[C@H](O)[C@H](O)COP(=O)(O)OP(=O)(O)OC[C@H]3O[C@@H](n4cnc5c(N)ncnc54)[C@H](O)[C@@H]3O)c2cc1C", "note": "[FAD]", "values": [
      {"measurement": "X-ray crystallography, 2.31 and 2.88 Å", "setting": "[1]", "result": "In both crystal forms the FAD cofactor is oxidized and accessible through two openings"}
    ]},
    {"molecule": "B1", "values": [
      {"measurement": "Km", "setting": "[2]", "result": "28.8 ± 2.2", "unit": "µM"},
      {"measurement": "kcat", "setting": "[2]", "result": "0.68 ± 0.02", "unit": "s⁻¹"}
    ]},
    {"molecule": "B2", "values": [
      {"measurement": "Km", "setting": "[2]", "result": "37.7 ± 8.4", "unit": "µM"},
      {"measurement": "kcat", "setting": "[2]", "result": "1.7 ± 0.5", "unit": "s⁻¹"}
    ]}
  ]
}
